In article PMC4386031:

Molecular target: seven of the nine datasets (monoUb and the diUb types fitted to a one-site binding model)
Assay: SPR; monoUb and all types of diUb immobilized, NZF1 (or its mutants) binding detected; one-site or two-site binding model; two experiments

Kd: 190 to 370 µM
Substance: TRABID NZF1 (aa 1-33) (from UniProt Q9UGI0 1-33) (domain or fragment)
